Among the data in patent US20130167269A1 are Kd, binding site concentration Bmax (pmole/ug BBMV) and percent of bound 125I-Cry35Ab1 displaced values, retold here.

In assay [1] the target is Brush border membrane vesicle (BBMV) preparation from midguts of third instars of the western corn rootworm (Diabrotica virgifera virgifera LeConte) (Diabrotica virgifera virgifera).
For assay [2] the target is unchanged. Nature of the assay: Homologous competition: unlabeled Cry35Ab1 (0-5,000 nM) against 5 nM 125I-Cry35Ab1 on BBMV (0.1 mg/ml); remaining about 50% considered nonspecific.

B1: Full-length Cry6Aa1 protein (protein)
chain: MIIDSKTTLPRHSLIHTIKLNSNKKYGPGDMTNGNQFIISKQEWATIGAYIQTGLGLPVNEQQLRTHVNLSQDISIPSDFSQLYDVYCSDKTSAEWWNKNLYPLIIKSANDIASYGFKVAGDPSIKKDGYFKKLQDELDNIVDNNSDDDAIAKAIKDFKARCGILIKEAKQYEEAAKNIVTSLDQFLHGDQKKLEGVINIQKRLKEVQTALNQAHGESSPAHKELLEKVKNLKTTLERTIKAEQDLEKKVEYSFLLGPLLGFVVYEILENTAVQHIKNQIDEIKKQLDSAQHDLDRDVKIIGMLNSINTDIDNLYSQGQEAIKVFQKLQGIWATIGAQIENLRTTSLQEVQDSDDADEIQIELEDASDAWLVVAQEARDFTLNAYSTNSRQNLPINVISDSCNCSTTNMTSNQYSNPTTNMTSNQYMISHEYTSLPNNFMLSRNSNLEYKCPENNFMIYWYNNSDWYNNSDWYNN
modifications: 125I-iodinated (Pierce Iodination Beads, Na125I) in the saturation assay; positions not given; unlabeled when used as competitor
Consider B1, for which, in assay [1], the Kd is 7.99 nM and the binding site concentration Bmax (pmole/ug BBMV) was 2.71.

B2: Chymotrypsin-truncated Cry35Ab1 core protein (protein)
chain: MLDTNKVYEISNHANGLYAATYLSLDDSGVSLMNKNDDDIDDYNLKWFLFPIDDDQYIITSYAANNCKVWNVNNDKINVSTYSSTNSIQKWQIKANGSSYVIQSDNGKVLTAGTGQALGLIRLTDESSNNPNQQWNLTSVQTIQLPQKPIIDTKLKDYPKYSPTGNIDNGTSPQLMGWTLVPCIMVNDPNIDKNTQIKTTPYYILKKYQYWQRAVGSNVALRPHEKKSYTYEWGTEIDQKTTIINTLGFQINIDSGMKFDIPEVGGGTDEIKTQLNEELKIEYSHETKIMEKYQEQSEIDNPTDQSMNSIGFLTITSLELYRYNGSEIRIMQIQTSDNDTYNVTSYPNHQQALL
modifications: 125I-iodinated (Pierce Iodination Beads, Na125I) when used as the labeled ligand; positions not given; unlabeled when used as competitor
Consider B2, for which the percent of bound 125I-Cry35Ab1 displaced at approximately 100 nM unlabeled Cry35Ab1 in assay [2] was more than 50%. In assay [1], this molecule yielded a Kd of 11.7 nM and a binding site concentration Bmax (pmole/ug BBMV) of 5.19.

What is called Kd is a measure of binding affinity in units of concentration. A lower Kd goes with a tighter complex.
